Assay results taken from patent US20230053360.

Tests used:
[1] = tested on: MMPpep, (prA)GGPQGIWGQG(azK), as the DNA1-MMPpep-DNA2 triblock conjugate linking two DX tiles
[2] = tested on: MMPpep-scram, (prA)GQGIPQGWGG(azK), as a DNA-peptide-DNA conjugate linking two DX tiles

Sequence of human matrix metalloproteinase 8 (chain, as listed by the source): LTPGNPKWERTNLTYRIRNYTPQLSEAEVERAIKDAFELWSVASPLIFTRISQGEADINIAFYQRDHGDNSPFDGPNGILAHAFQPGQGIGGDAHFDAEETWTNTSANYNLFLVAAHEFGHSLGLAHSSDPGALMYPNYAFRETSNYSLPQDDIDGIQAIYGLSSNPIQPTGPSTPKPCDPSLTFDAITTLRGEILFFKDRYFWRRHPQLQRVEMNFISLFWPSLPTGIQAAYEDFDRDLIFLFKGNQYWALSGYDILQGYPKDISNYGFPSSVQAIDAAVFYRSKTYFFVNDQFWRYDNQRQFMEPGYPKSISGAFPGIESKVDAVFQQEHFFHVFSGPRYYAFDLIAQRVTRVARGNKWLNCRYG

Substance: human matrix metalloproteinase 8
- cleavage of DX tile dimer to individual tiles, native PAGE [1]: Following addition of MMP8 (4 ng protein, incubation for 48 h at 37 °C in PBS) a single band is once again seen, corresponding to the individual tiles
- cleavage of DX tile dimer to individual tiles, native PAGE [2]: did not show any cleavage to individual tiles
